In patent US10487118B2, “Factor involved in latent infection with herpes virus, and use thereof” (Virus Ikagaku Kenkyusho Inc., priority 2007, dated 2019):

Columns and labels:
mice [1] = experiment: Motor activity in terms of wheel running activity; format: in vivo; details: vs EGFP control mice
Description: Next, an open reading frame of SITH-1 was linked downstream of a GFAP promoter, and expressed in glial cells of mice using an adenovirus vector; three weeks later, the mice were measured for their motor activity in terms of wheel running activity.
Subsequently, an open reading frame of SITH-1 was linked downstream of a GFAP promoter, and expressed in glial cells of mice using a lentivirus vector; eight weeks later, the mice were measured for their motor activity in terms wheel running activity.

[2] = target: T1, calcium-signal modulating cyclophilin ligand (CAML) (Homo sapiens, UniProt P49069); experiment: Binding of SITH-1 to host protein (yeast two-hybrid, in vitro pull-down, co-precipitation); details: yeast two-hybrid with human fetal brain cDNA library; GST pull-down; co-precipitation in 293T cells
T1 construct: made in house; host or cells: yeast (two-hybrid prey from a human fetal brain cDNA library); E. coli (pull-down); 293T cells (transfected, co-precipitation)
T1 sequence (P49069 1-296): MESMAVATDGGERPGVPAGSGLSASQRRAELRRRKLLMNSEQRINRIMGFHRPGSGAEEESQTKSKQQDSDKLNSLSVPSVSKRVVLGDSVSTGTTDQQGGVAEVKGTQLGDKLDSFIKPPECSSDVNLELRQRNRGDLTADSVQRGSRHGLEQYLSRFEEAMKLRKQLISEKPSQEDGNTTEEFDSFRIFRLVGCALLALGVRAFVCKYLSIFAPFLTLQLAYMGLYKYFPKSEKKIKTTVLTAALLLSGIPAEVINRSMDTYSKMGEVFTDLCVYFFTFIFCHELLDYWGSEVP
Description: To study the function of the protein SITH-1, a host protein to which the protein SITH-1 would bind within cells was identified. This was performed by screening of a human fetal brain cDNA library by means of yeast two-hybrid assay with the protein SITH-1 used as a bait.

mice [3] = experiment: Tail suspension test; format: in vivo; details: SITH-1 transferred using adenovirus vector, GFAP promoter, injected into brains of newborn mice
Description: (§1) SITH-1 having a glial fibrillary acidic protein (GFAP) promoter linked upstream of its open reading frame was injected into the brains of newborn mice using an adenovirus vector or a retrovirus vector. GFAP is a protein expressed specifically in glial cells such as astrocytes.
(§2) A tail suspension test and a forced swimming test were conducted to evaluate mental disorders; these tests are commonly used to observe patients with depression or manic-depressive illness. Specifically, mice into which SITH-1 was transferred using an adenovirus vector were subjected to a tail suspension test. […] Subsequently, mice into which SITH-1 was transferred using a retrovirus vector were subjected to a forced swimming test.

mice [4] = experiment: Forced swimming test; format: in vivo
Description: as §1, §2

mice [5] = experiment: Startle response (prepulse inhibition); format: in vivo; details: SITH-1 transferred using adenovirus vector
Description: as §1
The present inventors also measured a prepulse inhibition in order to check for any abnormality in a startle response, which abnormality is to be found in patients with manic-depressive illness and schizophrenia. Specifically, mice into which SITH-1 was transferred using the adenovirus vector were evaluated for a startle response by measuring the prepulse inhibition.

[6] = system: astrocyte-like glial cell line (U373); experiment: Fluorescent antibody staining of CAML in SITH-1-expressing U373 cells; format: cell-based; details: SITH-1 expressed in U373 vs untreated U373 cells
Source text: CAML is a protein that has been reported to show strong expression in lymphocytes and in a brain, and it is known that CAML has ability to increase an intracellular calcium concentration. Thus, in order to see whether the protein SITH-1 would be mediated by CAML to increase the intracellular calcium concentration, both an astrocyte-like glial cell line (U373) in which SITH-1 had been expressed and untreated U373 cells were stained by the fluorescent antibody technique using anti-SITH-1 antibodies and anti-CAML antibodies.

[7] = system: astrocyte-like glial cell line (U373); experiment: Intracellular calcium concentration measured with Fura2 after thapsigargin stimulation; format: cell-based; details: SITH-1 transferred via retrovirus vector into U373, thapsigargin (TG) stimulation, vs vector only
Description: In another experiment, two samples were prepared; one sample was prepared by transferring SITH-1 into an astrocyte-like glial cell line (U373) via a retrovirus vector, and the other sample was prepared by introducing only the vector into U373. Each sample was stimulated with thapsigargin (TG), and an intracellular calcium concentration was measured using Fura2.

B1: SITH-1: protein expressed specifically during latent infection with HHV-6; approximately 17.5 kDa, 159 amino acids, SEQ ID NO: 1 (protein)
chain: MGYEEKVSATGKTRLKILACLIVLILAAAITMLTLEIISNQKRTTTDLEAVTVALKHVSTSLASCTESTTSVHTDSVTSQPTKNKESRKKIEGKSPSWVQALTTASGIILLFCIMMIFITCSWTTEKDTEKSEVQSYASSVETLDSLNEAIIPKTEMNV
modifications: Human herpesvirus 6
- motor activity (wheel running activity) (mice [1]; adenovirus vector, three weeks later): motor activity enhanced
- motor activity (wheel running activity) (mice [1]; lentivirus vector, eight weeks later): motor activity suppressed
- binding to CAML [2]: bind strongly
- immobile time (mice [3]): markedly shorter immobile time
- immobile time (mice [4]; retrovirus vector at HIGH titer, vs EGFP control mice): longer immobile time
- immobile time (mice [4]; retrovirus vector at LOW titer): shorter immobile time
- prepulse inhibition (mice [5]): markedly lower prepulse inhibition
- amount of CAML [6]: more CAML was found than in the untreated U373 cells
- intracellular calcium concentration [7]: considerably higher
